target: acetylcholine receptor; assay: SPR, AchR immobilised on chip, peptide at 10 uM

Row | Binding affinity (RU) | Binder
1 | 77 RU | KLVTK [5mer-577]
2 | 58 RU | RGFLK [5mer-281]
3 | 64 RU | KVYTR [5mer-275]
4 | 59 RU | KGFTR [5mer-574]
5 | 84 RU | RSIYR [5mer-573]
6 | 58 RU | KLRTK [5mer-572]
7 | 68 RU | RGRYR [5mer-271]
8 | 66 RU | RWQRR [5mer-278]
9 | 77 RU | RVLTR [5mer-282]
10 | 82 RU | RVFTR [5mer-277]
11 | 65 RU | KGVLR [5mer-581]
12 | 85 RU | RLFLR [5mer-269]
13 | 70 RU | RSLRR [5mer-276]
14 | 64 RU | KQITR [5mer-568]
15 | 56 RU | KLVRR [5mer-570]
16 | 51 RU | RRLTK [5mer-571]

Row | Binding affinity (RU) | Binder
17 | 83 RU | KGYQR [5mer-272]
18 | 66 RU | KRLLK [5mer-267]
19 | 54 RU | KRYCK [5mer-268]
20 | 53 RU | KWILK [5mer-280]
21 | 62 RU | RLFRK [5mer-576]
22 | 62 RU | RQVRK [5mer-274]
23 | 79 RU | RQQRK [5mer-569]
24 | 69 RU | KGFYR [5mer-575]
25 | 70 RU | RGYTR [5mer-580]
26 | 65 RU | KSVLR [5mer-578]
27 | 82 RU | RVQSK [5mer-273]
28 | 63 RU | RRYCK [5mer-567]
29 | 53 RU | RSLYK [5mer-579]
30 | 56 RU | RVVTK [5mer-279]
31 | 52 RU | RSQQR [5mer-270]
